The results in this text go back to article PMC10090080.

The target of experiment [1] is pUL93 (human cytomegalovirus strain AD169). The experiment in a line: cryo-EM structure.
Experiment [2] has as its target portal protein pUL104 (human cytomegalovirus strain AD169). Description: cryo-EM structure.

As usually defined, the stoichiometry N is the number of molecules, sites or subunits per partner or assembly. pUL77 (natural protein) yielded a stoichiometry N in experiment [1] of 2.
The substance portal protein pUL104 (natural protein) displayed a stoichiometry N in experiment [2] of 12.
